# Data from the DeepSol protein solubility set.
# Test: soluble on expression in E. coli; label from the status in PepcDB or PDB records
row,Sequence,soluble on expression in E. coli
1,MGSDKIHHHHHHMKIGDKVRFLSEVGGGIVTGFKGKDFVLVEDADGFDIPMPIRECVVIEADDYNIKRKPAATAPKQEEPAKPAKPEMPVIQRQPEVRGGDTLNVFLAYVPEDAKAMMTTPFEAYLVNDSNYYLYYTYLSAEGKAWNNRSHGLVEPNTKLLLEEFTKDVLNEMERVAVQLIAFKDGKPAAIKPAVSVELRIDTVKFYKLHTFSASDFFEEPALIYDIVKDDVPAKQVYVSAEEIQSALLQKKFVDKPKSQPIMKPNHGQSGKNGIIEVDLHIDSLLDDTHGMSNSEILNYQLDKFREVIEANKEKREQKVVFIHGKGDGVLRKAIIDELKRKHSNYRYQDASFQEYGFGATMVTIK,not soluble
2,MNQTDTSPIRLRRSWNTSEIEALFDEHAGRIDPRIYTDEDLYQLELERVFARSWLLLGHETQIRKPGDYITTYMGEDPVVVVRQKDASIAVFLNQCRHRGMRICRADAGNAKAFTCSYHGWAYDTAGNLVNVPYEAESFACLNKKEWSPLKARVETYKGLIFANWDENAVDLDTYLGEAKFYMDHMLDRTEAGTEAIPGVQKWVIPCNWKFAAEQFCSDMYHAGTTSHLSGILAGLPEDLEMADLAPPTVGKQYRASWGGHGSGFYVGDPNLMLAIMGPKVTSYWTEGPASEKAAERLGSVERGSKLMVEHMTVFPTCSFLPGINTVRTWHPRGPNEVEVWAFTVVDADAPDDIKEEFRRQTLRTFSAGGVFEQDDGENWVEIQHILRGHKARSRPFNAEMSMDQTVDNDPVYPGRISNNVYSEEAARGLYAHWLRMMTSPDWDALKATR,soluble
3,MNTPAQRHFTLEPANAERLADLSGCFNEHLRQIELRLGVEIANRGHTFHITGPEPAVTSTETLLRALYAEATGTTFNNHTIQLRLSEAHMAQIVEQTDTPQDIGIRVKRGTVRGHGANQTKYLHKIATHDINFGIGPAGTGKTFLAVASAVEALNESRVQRLILVRPAVEAGEKLGFLPGDLNQKIDPYLRPLYDALYEMLGVEKVLKLLEKNIIEIAPLAYMRGRTLNNAFVILDEAQNTTIEQMKMFLTRLGFGSTAVVTGDLTQIDIPKHLKSGLDDAIEVLHDIEGISFTFFKSHDVVRHPLVARIVSAYDKHNTHPSTTKPA,not soluble
4,GPGSMKPATIPHGKNDAEGAGARMYEGMNTLQKEELNDYLISQMGPGTKWHDEMSDVVNTIIRQRSINGEPLDVHDVLSEALPHCQLAISHEVRDGLFRRIAGMCTTTDV,soluble
5,MQHYLLDSNQRLNVSFSKDSVAAYYQCFNQPYRKEVPPLMCASLWPKFDLFKKYANSELILTKSAINQTQKIEVDTIYVGHLEDIECRQTRNITRYTMALTLTKNDQHVITVTQTFIKAMKLEHHHHHH,soluble
6,MHHHHHHSSGVDLGTENLYFQSMDVGIVALEIYFPSQYVDQAELEKYDGVDAGKYTIGLGQAKMGFCTDREDINSLCMTVVQNLMERNNLSYDCIGRLEVGTETIIDKSKSVKTNLMQLFEESGNTDIEGIDTTNACYGGTAAVFNAVNWIESSSWDGRYALVVAGDIAVYATGNARPTGGVGAVALLIGPNAPLIFERGLRGTHMQHAYDFYKPDMLSEYPIVDGKLSIQCYLSALDRCYSVYCKKIHAQWQKEGNDKDFTLNDFGFMIFHSPYCKLVQKSLARMLLNDFLNDQNRDKNSIYSGLEAFGDVKLEDTYFDRDVEKAFMKASSELFSQKTKASLLVSNQNGNMYTSSVYGSLASVLAQYSPQQLAGKRIGVFSYGSGLAATLYSLKVTQDATPGSALDKITASLCDLKSRLDSRTGVAPDVFAENMKLREDTHHLVNYIPQGSIDSLFEGTWYLVRVDEKHRRTYARRP,soluble
7,MPNIKIFSGSSHQDLSQKIADRLGLELGKVVTKKFSNQETCVEIGESVRGEDVYIVQSGCGEINDNLMELLIMINACKIASASRVTAVIPCFPYARQDKKDKSRAPISAKLVANMLSVAGADHIITMDLHASQIQGFFDIPVDNLYAEPAVLKWIRENISEWRNCTIVSPDAGGAKRVTSIADRLNVDFALIHKERKKANEVDRMVLVGDVKDRVAILVDDMADTCGTICHAADKLLSAGATRVYAILTHGIFSGPAISRINNACFEAVVVTNTIPQEDKMKHCSKIQVIDISMILAEAIRRTHNGESVSYLFSHVPLLEHHHHHH,soluble
8,MHNNENVSGISAYLLGLIWGDGGLYKLKYKGNRSEYRVVITQKSENLIKQFIAPRMQFLIDELNVKSKIQIVKGDTRYELRVSSKKLYYYFANMLERIRLFNGNRFLAYLAGIVDGDGSIIAQIKPNQSYKFKHQLSLTFQVTQKTERRWFLDKLVDEIGVGYVRDRGSVSDYILSEIKPLHNFLTQLQPFLNFKQKQANLVLKIIEQLPSAKESPDKFLEVCTWVDQIAALNDSKTRKTTSETVRAVLDSLSEKKKSSP,soluble
9,MRGSHHHHHHGMASMVVNNPNNWHWVDKNCIGWAKEYFKQKLVGVEAGSVKDKKYAKIKSVSSIEGDCEVNQRKGKVISLFDLKITVLIEGHVDSKDGSALPFEGSINVPEVAFDSEASSYQFDISIFKETSELSEAKPLIRSELLPKLRQIFQQFGKDLLATHGNDIQV,soluble
10,AESHWCYEVQAESSNYPCLVPVKWGGNCQKDRQSPINIVTTKAKVDKKLGRFFFSGYDKKQTWTVQNNGHSVMMLLENKASISGGGLPAPYQAKQLHLHWSDLPYKGSEHSLDGEHFAMEMHIVHEKEKGTSRNVKEAQDPEDEIAVLAFLVEAGTQVNEGFQPLVEALSNIPKPEMSTTMAESSLLDLLPKEEKLRHYFRYLGSLTTPTCDEKVVWTVFREPIQLHREQILAFSQKLYYDKEQTVSMKDNVRPLQQLGQRTVIKS,soluble
11,RDRSTIARIQFRLPDGSSFTNQFPSDAPLEEARQFAAQTVGNTYGNFSLATMFPRREFTREDYKRRLLDLELAPSASVVLLPAGRPATSIVHSSSGDILMID,soluble
12,MRKTKTEALKTKEHLMLAALETFYRKGIARTSLNEIAQAAGVTRGALYWHFKNKEDLFDALFQRICDDIENCIAQDAEDAEGGSWAVFRHTLLHFFERLQSNDIYYKFHNILFLKCEHTEQNAAVIAIARKHQAIWREKITAVLTEAVENQDLADDLDKETAVIFIKSTLDGLIWRWFSSCERFDLGKTAPRIIGIMMDNLENHPDLRRK,soluble
13,MALPTIESFKKLSSEDKRQVLDHLFEPCNTLSNFVFIKVLHQQYNTYPEFINLVRKELLEFLKQSETFQSQYQGEISPVINEIISAHPRLGEPKKETLSVHSNNEQKTLNNDPEIIKKLKELNAAYEKTFPGLRYVVFVNGRSRHEIMDNMQKRIERNDINLERVEAFNAMCDIALDRANKLGIKL,not soluble
14,VALSADIVGMHYRYPDHYEVEREKIREYAVAVQNDDAWYFEEDGAAELGYKGLLAPLTFICVFGYKAQAAFFKHANIATAEAQIVQVDQVLKFEKPIVAGDKLYCDVYVDSVREAHGTQIIVTKNIVTNEEGDLVQETYTTLAGRAGEDGEGFSDGAA,soluble
15,MAQNESPAEQLFAAIGLLRRHTRRRVGRPWPETPLTGSQVELVRLLRRRPGTSVAEAAAALGLAANTVSTLVRQLTDAGLVERVRDESDRRVARLALTDDARAQVERWRDRRNIEVAAAFDGLSAEDRKAIESAIPAITRLAGALHPDQAGPSDQEVVR,not soluble
16,MKMLVGKIPSELLAKILEKLKPGDKVIVGPKVGIDATAIDFGDYVLVASTDPITGTEEKIGFYAVNINANDVATFGARPKWFLVTILLPEGSEFNDVITIMDEVREVAEGMGISIVGGHTEVTPGLKKPIVVGTMLGEVEKENLVVPNPRPGDAIILTKGAGIEGTSIIAHEREEELKGVFGSNFVERAKAFINEISIVREALLSREFATAMHDPTEGGIANGLHEMADINGLGFRIFANKVIIREETRKICHFYDLDPLALISSGALLISTPRDHAKFLIERLLSHGIQASIIGEFLAEKKRVIIENGAERPLKRPESDELWKVV,soluble
17,EVKEEDAFYSKKCKLFYKKDNEFKEKGIGTLHLKPTANQKTQLLVRADTNLGNILLNVLIPPNMPCTRTGKNNVLIVCVPNPPIDEKNATMPVTMLIRVKTSEDADELHKILLEKKDA,soluble
18,MGSDKIHHHHHHMQKLTRINDFNEVLNSRKSVKVFDENYKIPREEMDEIITKATKAPSSVNMQPWRIAVVQSDEMKEKVKESFGFNSRQLTTSSAMLIIFGDLQNYEKAEQIYGDAVEQQLMTEDIKAQLLDWILPYYKNLSREGMKDIVNIDSSLMAMQLMLTAKAHGYDTNPIGGFDKENIADIIGYDSDRYVPVLAIAIGKKAQDAHDSVRLPIDDVREFL,not soluble
